Laboratory results: patent US20160369011A1 (EISAI R AND D MANAGEMENT, published 2016)
Numbering of substitutions follows the chain as printed.

T1: human endosialin/TEM1 extracellular domain fused to mouse IgG2b Fc (human)
T1 construct: also called TEM1-Fc
T1 chain: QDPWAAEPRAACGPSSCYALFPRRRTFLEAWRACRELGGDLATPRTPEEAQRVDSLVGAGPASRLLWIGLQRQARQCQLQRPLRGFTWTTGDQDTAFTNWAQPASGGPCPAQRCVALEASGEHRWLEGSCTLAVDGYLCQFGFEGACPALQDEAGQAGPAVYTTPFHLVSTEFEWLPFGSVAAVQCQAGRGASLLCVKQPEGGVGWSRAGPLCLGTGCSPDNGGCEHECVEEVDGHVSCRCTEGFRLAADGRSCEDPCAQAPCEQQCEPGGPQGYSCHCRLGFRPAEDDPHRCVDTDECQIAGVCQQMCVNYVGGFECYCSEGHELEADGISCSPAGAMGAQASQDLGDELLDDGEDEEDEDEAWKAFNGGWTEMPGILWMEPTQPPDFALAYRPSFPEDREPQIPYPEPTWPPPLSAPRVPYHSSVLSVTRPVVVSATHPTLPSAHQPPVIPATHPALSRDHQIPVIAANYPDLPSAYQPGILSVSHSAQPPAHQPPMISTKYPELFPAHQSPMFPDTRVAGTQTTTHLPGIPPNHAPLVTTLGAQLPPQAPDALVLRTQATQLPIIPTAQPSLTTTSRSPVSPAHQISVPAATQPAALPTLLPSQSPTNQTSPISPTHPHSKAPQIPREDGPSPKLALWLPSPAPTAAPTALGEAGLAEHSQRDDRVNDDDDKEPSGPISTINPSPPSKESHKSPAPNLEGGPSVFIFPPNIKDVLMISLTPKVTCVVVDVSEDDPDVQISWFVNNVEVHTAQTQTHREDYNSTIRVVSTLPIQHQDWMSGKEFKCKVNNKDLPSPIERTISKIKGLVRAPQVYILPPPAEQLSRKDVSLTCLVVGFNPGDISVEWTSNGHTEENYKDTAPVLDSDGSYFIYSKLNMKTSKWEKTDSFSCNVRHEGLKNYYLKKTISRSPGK

B1: 155D5 (rabbit anti-CA9 mAb) (antibody, V domains shown)
VH: QSVKESGGRLVTPGTPLTLTCTVSGFSLNSYAMIWVRQAPGEGLEYIGFITTGGTTYYASWAKGRFTISRTSTTVDLKLTRPTTEDTATYFCARDRVKSYDDYGDLDAFEPWGPGTLVTISS
VL: ELVMTQTPSSVSAAVGGTVTINCQASQSISSYLAWYQQKPGQPPKLLIYYASTLASGVPSRFKGSGSGTEFTLTITGVQCDDAATYYCLGVYGYSFDDGIAFGGGTELEIK
notes: Parental rabbit IgG with rabbit constant regions (Cys80-Cys171 disulfide); also called rabbit 155D5 MAb
B2: zu155D5-4 (antibody, human IgG1, kappa)
heavy: not shown
light: DIQMTQSPSTLSASVGDRVTITCQASQSISSYLAWYQQKPGKAPKLLIYYASTLASGVPSRFSGSGSGTEFTLTITGVQCDDAATYYCLGVYGYSFDDGIAFGGGTKVEIKRTVAAPSVFIFPPSDEQLKSGTASVVCLLNNFYPREAKVQWKVDNALQSGNSQESVTEQDSKDSTYSLSSTLTLSKADYEKHKVYACEVTHQGLSSPVTKSFNRGEC
notes: Humanized 155D5, human IgG1 kappa; Tested both protein A purified and decapped
B3: zu155D5-7 (antibody, human IgG1, kappa)
heavy: not shown
light: B2 light with K107E, V108L
notes: as for B2
B4: zu155D5-5 (antibody, human IgG1, kappa, V domains shown)
VH: QVQLVESGGGLVQPGGSLRLSCSASGFSLNSYAMIWVRQAPGKGLEYIGFITTGGTTYYADSVKGRFTISRDNSKNTLYLQMNSLRAEDTAVYYCARDRVKSYDDYGDLDAFEPWGQGTLVTVSS
VL: DIQMTQSPSTLSASVGDRVTITCQASQSISSYLAWYQQKPGKAPKLLIYYASTLASGVPSRFKGSGSGTEFTLTITGVQCDDAATYYCLGVYGYSFDDGIAFGGGTKVEIKR
notes: as for B2
B5: zu155D5-6 (antibody, human IgG1, kappa)
heavy: not shown
light: B2 light with L11V, S14A, D17G, R18T
notes: as for B2
B6: zu155D5-1 (antibody, human IgG1, kappa, V domains shown)
VH: B4 VH
VL: B4 VL with K63S, T76S, G77S, V78L, A83F
notes: Humanized 155D5, human IgG1 kappa; Tested both protein A purified (Cys80 capped) and decapped; also called zu155D5-CXXF; zu155D5-1 (huVK1-5)
B7: zu155D5-2 (antibody, human IgG1, kappa, V domains shown)
VH: B4 VH
VL: B4 VL with K63S, A83F
notes: as for B2
B8: zu155D5-3 (antibody, human IgG1, kappa, V domains shown)
VH: B4 VH
VL: B4 VL with K63S, T76S, G77S, V78L
notes: Humanized 155D5, human IgG1 kappa; Tested both protein A purified and decapped; also called zu155D5-CXXA
B9: xi155D5/xi1-55-2 bivalent/bispecific antigen-binding molecule (bispecific antibody)
heavy 1: B1 VH
light 1: ELVMTQTPSSVSAAVGGTVTINCQASQSISSYLAWYQQKPGQPPKLLIYYASTLASGVPSRFKGSGSGTEFTLTITGVQCDDAATYYCLGVYGYSFDDGIAFGGGTELEIKRTVAAPSVFIFPPSDEQLKSGTASVVCLLNNFYPREAKVQWKVDNALQSGNSQESVTEQDSKDSTYSLSSTLTLSKADYEKHKVYACEVTHQGLSSPVTKSFNRGEC
heavy 2: QSVEESGGDLVKPEGSLTLTCTASGFSFSSSYWGCWVRQAPGKGPEWIACIYGGSSGTTYYPNWAKGRFSISKTSSTTVTLQMASLTAADTATYFCARVTNGGDWDFKLWGPGTLVTISS
light 2: ELVMTQTPASVEVAVGGTVTIKCQASQSINTYLAWYQQKPGQPPKLLIYRASTLASGVPSRFKGSGSGTEFTLTISDLECADAATYYCQQSVRVIDVDNTFGGGTEVVVKRTVAAPSVFIFPPSDEQLKSGTASVVCLLNNFYPREAKVQWKVDNALQSGNSQESVTEQDSKDSTYSLSSTLTLSKADYEKHKVYACEVTHQGLSSPVTKSFNRGEC
modifications: maleimido-PEG4-azide on Cys80, joined by copper-free click chemistry to the DBCO on Cys80 of the xi155D5 light chain; maleimido-PEG4-dibenzylcyclooctyne (DBCO) on Cys80, joined by copper-free click chemistry to the azide on Cys80 of the xi1-55-2 light chain
notes: Two papain Fabs linked chemically through their light chain Cys80 residues; mass 95,939 Da by mass spectrometry; also called biFab; bivalent/bispecific Fab-Fab; not shown: human IgG1 CH1 and hinge up to the papain cleavage site
B10: xi155D5 Fab (Fab, V domains shown)
VH: B1 VH
VL: ELVMTQTPSSVSAAVGGTVTINCQASQSISSYLAWYQQKPGQPPKLLIYYASTLASGVPSRFKGSGSGTEFTLTITGVQCDDAATYYCLGVYGYSFDDGIAFGGGTELEIKR
notes: Made from xi155D5 by limited papain digestion and protein A removal of Fc; Fabs were fully decapped; not shown: human IgG1 CH1 and hinge up to the papain cleavage site
B11: xi1-55-2 Fab (Fab, V domains shown)
VH: B9 heavy 2
VL: ELVMTQTPASVEVAVGGTVTIKCQASQSINTYLAWYQQKPGQPPKLLIYRASTLASGVPSRFKGSGSGTEFTLTISDLECADAATYYCQQSVRVIDVDNTFGGGTEVVVKR
notes: Made from xi1-55-2 by limited papain digestion and protein A removal of Fc; Fabs were fully decapped; not shown: human IgG1 CH1 and hinge up to the papain cleavage site

Target: T2, human CA9 (carbonic anhydrase IX) (human, UniProt Q16790 38-414)
Experiment: SPR (BIAcore), biotin-CA9 captured on CAP chip, antibody 0-50 nM as analyte
Method: To determine if chimerization, and therefore the loss of Cys80-Cys171 disulfide bond, results in structural perturbations leading to loss of antigen binding, the binding affinity of mAbs 155D5, xi155D5, 1-55-2, and xi1-55-2 by surface plasmon resonance was evaluated. Biotinylated ligand (biotin-hTEM1 for 1-55-2, biotin-CA9 for 155D5) was captured on a coated biotin CAP BIAcore chip (GE Healthcare, Piscataway, N.J.) using HBS-EP as running buffer. Final antigen capture levels were 130 RU and 280 RU, respectively, for biotin-TEM1 and biotin-CA9. Serial dilutions of antibody (120 μL of 0-50 nM) were passed over the ligand-coated chip. […] The chip surface was regenerated with 6 M GuHCl, 250 mM NaOH. Sensograms were double referenced and kinetic parameters were determined using BIAEvaluations software (ver. 4.1).

Kd [pM]	koff [s⁻¹]	kon [M⁻¹ s⁻¹]	Binder
41	2.1e-05	510000	B1

Target: T2, human CA9 (carbonic anhydrase IX)
Experiment: BIAcore T100, mAb captured on anti-human IgG, antigen as analyte, 1:1 model; mAb purified by the decapping method (Decapped)
Method: (§1) Antibody concentrations were adjusted to generate 30-40 RU signal when bound to the antigen. […] The sensor surface was washed by injecting HBS-P buffer for 1 min at a flow rate of 50 μL/min. To record the antigen association to the captured mAb, a series of increasing concentrations of antigen was injected for 60 sec at a flow rate of 50 μL/min. The dissociation of antigen was monitored for 30 min at the same flow rate. The sensor surface was regenerated by injecting 3 M MgCl₂ for 1 min and then 30 sec at a flow rate of 30 μL/min. Sensograms were analyzed with Biacore T100 Evaluation Software using a 1:1 Langmuir binding model.
(§2) xi155D5 and the humanized variants were purified by standard protein A chromatography or the decapping method, and their affinity was analyzed using BIAcore (Table 13).

Kd [pM]	koff [s⁻¹]	kon [M⁻¹ s⁻¹]	Binder
590	0.000378	641000	B2
680	0.000319	485000	B3
478	0.000273	572000	B4
568	0.000319	558000	B5
500	0.000355	770000	B6
589	0.00027	458000	B7
507	0.000351	726000	B8

Target: T2, human CA9 (carbonic anhydrase IX)
Experiment: BIAcore, summary of Table 13; reference xi155D5; told of the group of humanized variants
Method: as §1, §2

fold difference in KD against chimeric xi155D5 [fold]	Binder
< 2	B2
< 2	B3
< 2	B4
< 2	B5
< 2	B6
< 2	B7
< 2	B8

Target: T2, human CA9 (carbonic anhydrase IX)
Experiment: SPR, ligand CA9, flow cell Fc4

Kd [pM]	koff [s⁻¹]	kon [M⁻¹ s⁻¹]	Binder
150	4.4e-05	294000	B9
49.9	2.59e-05	519000	B10

Target: T1, human endosialin/TEM1 extracellular …
Experiment: SPR, ligand TEM1-Fc, flow cell Fc4

Kd [pM]	koff [s⁻¹]	kon [M⁻¹ s⁻¹]	Binder
185	0.000189	1.02e+06	B9
376	0.000326	865000	B11

Target: T2, human CA9 (carbonic anhydrase IX)
Experiment: BIAcore T100, mAb captured on anti-human IgG, antigen as analyte, 1:1 model; mAb purified by protein A (ProA)
Method: as §1, §2

Kd [pM]	koff [s⁻¹]	kon [M⁻¹ s⁻¹]	Binder
664	0.000382	577000	B2
534	0.000458	869000	B3
639	0.000373	587000	B4
533	0.000477	898000	B5
498	0.000495	1.01e+06	B6
569	0.000376	663000	B7
562	0.000401	727000	B8

Target: T1, human endosialin/TEM1 extracellular …
Experiment: SPR, ligand TEM1-Fc, flow cell Fc3

Kd [pM]	koff [s⁻¹]	kon [M⁻¹ s⁻¹]	Binder
310	0.000257	829000	B9
382	0.000329	862000	B11

Target: T2, human CA9 (carbonic anhydrase IX)
Experiment: SPR, ligand CA9, flow cell Fc3

Kd [pM]	koff [s⁻¹]	kon [M⁻¹ s⁻¹]	Binder
121	3.91e-05	322000	B9
38.3	2.19e-05	572000	B10
